Measured values taken from patent publication US10428140B2, “Anti-EphA4 antibody” (EISAI R&D MANAGEMENT CO., LTD., priority 2015, dated 2019).
Numbering of substitutions follows the chain as printed. One block for each molecule: values may come before it.

What was measured:
Assay in all cases: Selectivity ELISA of humanized antibodies for human Eph receptor
Assay type in all cases: binding
human EphA10 = molecular target: T1, human EphA10 (Homo sapiens, UniProt Q5JZY3); settings: coated protein 1 nM
T1 construct: a protein of the extracellular region of each human Eph receptor fused with the SEAP protein and the His tag; made in house; host or cells: Expi293F cells (culture supernatant)
T1 sequence (Q5JZY3 34-565 limits assumed): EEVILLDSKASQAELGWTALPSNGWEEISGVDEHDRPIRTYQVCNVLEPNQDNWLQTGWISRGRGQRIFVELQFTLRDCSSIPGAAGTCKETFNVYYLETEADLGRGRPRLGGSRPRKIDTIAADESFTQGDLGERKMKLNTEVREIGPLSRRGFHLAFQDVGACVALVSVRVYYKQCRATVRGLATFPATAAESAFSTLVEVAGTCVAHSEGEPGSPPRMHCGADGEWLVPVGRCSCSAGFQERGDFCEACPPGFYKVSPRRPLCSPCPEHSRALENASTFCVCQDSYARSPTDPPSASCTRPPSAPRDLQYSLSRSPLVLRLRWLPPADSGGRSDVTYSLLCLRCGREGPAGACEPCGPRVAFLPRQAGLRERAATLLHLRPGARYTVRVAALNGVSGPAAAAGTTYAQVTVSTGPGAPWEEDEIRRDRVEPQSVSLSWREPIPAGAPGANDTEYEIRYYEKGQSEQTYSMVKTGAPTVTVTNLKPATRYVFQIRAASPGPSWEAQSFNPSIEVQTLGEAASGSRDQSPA
Summary of the method: (§1)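 Extracellular domains of human Eph receptors fused to SEAP-His were expressed in Expi293F cells for 5 days and captured from supernatant (1 nM final) on anti-His-coated plates. Humanized anti-EphA4 antibodies were incubated 1 h at room temperature, then HRP anti-IgG secondary, TMB substrate, and absorbance at 450 nm.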

human EphA4 = molecular target: T2, human EphA4 (Homo sapiens, UniProt P54764); settings: coated protein 1 nM; reference set to 100%
T2 construct: made in house; not restated for the human SEAP-His protein
T2 sequence (P54764 20-547): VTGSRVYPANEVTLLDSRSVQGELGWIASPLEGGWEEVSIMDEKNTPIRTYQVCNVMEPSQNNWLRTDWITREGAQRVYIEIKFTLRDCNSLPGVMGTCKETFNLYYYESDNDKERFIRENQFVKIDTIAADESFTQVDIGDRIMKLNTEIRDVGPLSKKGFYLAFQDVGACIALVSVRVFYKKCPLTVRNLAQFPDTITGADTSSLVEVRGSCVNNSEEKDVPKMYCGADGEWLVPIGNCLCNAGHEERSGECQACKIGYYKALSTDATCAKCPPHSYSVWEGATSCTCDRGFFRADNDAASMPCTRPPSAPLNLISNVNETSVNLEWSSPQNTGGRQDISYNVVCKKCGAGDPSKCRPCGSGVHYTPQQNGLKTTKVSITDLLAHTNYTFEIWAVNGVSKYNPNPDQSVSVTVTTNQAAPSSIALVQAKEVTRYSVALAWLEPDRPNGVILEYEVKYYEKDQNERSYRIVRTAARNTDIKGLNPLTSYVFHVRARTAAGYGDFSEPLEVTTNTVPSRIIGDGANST
Summary of the method: as §1

human EphA7 = molecular target: T3, human EphA7 (Homo sapiens, UniProt Q15375); settings: coated protein 1 nM
T3 construct: a protein of the extracellular region of each human Eph receptor fused with the SEAP protein and the His tag; made in house; host or cells: Expi293F cells (culture supernatant)
T3 sequence (Q15375 28-555 limits assumed): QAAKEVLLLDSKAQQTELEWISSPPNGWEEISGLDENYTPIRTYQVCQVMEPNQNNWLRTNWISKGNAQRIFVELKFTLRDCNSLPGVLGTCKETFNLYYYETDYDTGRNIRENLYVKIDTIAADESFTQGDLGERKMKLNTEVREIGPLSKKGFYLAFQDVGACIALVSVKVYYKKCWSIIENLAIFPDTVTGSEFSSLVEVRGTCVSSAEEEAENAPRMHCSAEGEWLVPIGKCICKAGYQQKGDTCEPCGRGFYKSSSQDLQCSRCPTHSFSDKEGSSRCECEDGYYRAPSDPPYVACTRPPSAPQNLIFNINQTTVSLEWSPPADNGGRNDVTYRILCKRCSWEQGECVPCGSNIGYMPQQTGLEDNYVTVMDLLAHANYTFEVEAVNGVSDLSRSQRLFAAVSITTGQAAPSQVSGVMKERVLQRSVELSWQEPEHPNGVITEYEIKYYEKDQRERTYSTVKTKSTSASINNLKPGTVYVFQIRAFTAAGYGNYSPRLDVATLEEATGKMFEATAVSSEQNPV
Summary of the method: as §1

human EphA8 = molecular target: T4, human EphA8 (Homo sapiens, UniProt P29322); settings: coated protein 1 nM
T4 construct: a protein of the extracellular region of each human Eph receptor fused with the SEAP protein and the His tag; made in house; host or cells: Expi293F cells (culture supernatant)
T4 sequence (P29322 28-542 limits assumed): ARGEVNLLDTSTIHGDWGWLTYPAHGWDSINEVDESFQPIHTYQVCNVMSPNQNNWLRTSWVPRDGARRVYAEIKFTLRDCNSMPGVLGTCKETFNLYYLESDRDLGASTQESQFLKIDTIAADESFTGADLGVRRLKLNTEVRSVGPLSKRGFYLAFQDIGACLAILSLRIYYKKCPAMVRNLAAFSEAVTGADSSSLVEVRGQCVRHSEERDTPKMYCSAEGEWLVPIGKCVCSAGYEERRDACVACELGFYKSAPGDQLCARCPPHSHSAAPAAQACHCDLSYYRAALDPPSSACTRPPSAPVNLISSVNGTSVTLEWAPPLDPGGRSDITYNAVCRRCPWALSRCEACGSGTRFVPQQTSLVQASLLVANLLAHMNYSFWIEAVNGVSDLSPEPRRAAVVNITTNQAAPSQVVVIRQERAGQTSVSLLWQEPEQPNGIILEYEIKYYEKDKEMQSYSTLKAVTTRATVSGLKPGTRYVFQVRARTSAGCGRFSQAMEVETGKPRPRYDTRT
Summary of the method: as §1

B1: 142 (antibody, V domains shown)
VH: QVQLVQSGSELKKPGASVKVSCKASGYTFTDYSMHWVRQAPGQGLKWMGWINTETGEPTYADDFKGRFVFSLDTSVSTAYLQISSLKAEDTAVYYCARIPLYYYGSRYWYFDVWGQGTTVTVSS
VL: DIQMTQSPSSLSASVGDRVTITCRASENIYRNLAWYQQKPGKAPKLLVYAATNLADGVPSRFSGSGSGTDYTLTISSLQPEDFATYYCQHFWGTPWTFGQGTKVEIK
modifications: synthetic humanized antibody heavy chain variable region sequence; synthetic humanized antibody light chain variable region sequence
- hEphA10-SEAP-: absorbance at 450 nm, percentage with respect to hEphA4-SEAP-His as 100% (human EphA10): 5.4%
- hEphA4-SEAP-: absorbance at 450 nm, percentage with respect to hEphA4-SEAP-His as 100% (human EphA4): 100%
- hEphA7-SEAP-: absorbance at 450 nm, percentage with respect to hEphA4-SEAP-His as 100% (human EphA7): 5.5%
- hEphA8-SEAP-: absorbance at 450 nm, percentage with respect to hEphA4-SEAP-His as 100% (human EphA8): 5.7%

B4: 152 (antibody, V domains shown)
VH: B1 VH with K46E, D62Q, D63G, K65T
VL: B1 VL with V48L, P80S
modifications: synthetic humanized antibody heavy chain variable region sequence; synthetic humanized antibody light chain variable region sequence
- hEphA10-SEAP-: absorbance at 450 nm, percentage with respect to hEphA4-SEAP-His as 100% (human EphA10): 5.8%
- hEphA4-SEAP-: absorbance at 450 nm, percentage with respect to hEphA4-SEAP-His as 100% (human EphA4): 100%
- hEphA7-SEAP-: absorbance at 450 nm, percentage with respect to hEphA4-SEAP-His as 100% (human EphA7): 5.7%
- hEphA8-SEAP-: absorbance at 450 nm, percentage with respect to hEphA4-SEAP-His as 100% (human EphA8): 6.0%

B7: 151 (antibody, V domains shown)
VH: B1 VH with V2I, D62Q, D63G, K65T
VL: B1 VL with V48L, P80S
modifications: synthetic humanized antibody heavy chain variable region sequence; synthetic humanized antibody light chain variable region sequence
- hEphA10-SEAP-: absorbance at 450 nm, percentage with respect to hEphA4-SEAP-His as 100% (human EphA10): 6.6%
- hEphA4-SEAP-: absorbance at 450 nm, percentage with respect to hEphA4-SEAP-His as 100% (human EphA4): 100%
- hEphA7-SEAP-: absorbance at 450 nm, percentage with respect to hEphA4-SEAP-His as 100% (human EphA7): 6.8%
- hEphA8-SEAP-: absorbance at 450 nm, percentage with respect to hEphA4-SEAP-His as 100% (human EphA8): 6.9%

B8: 143 (antibody, V domains shown)
VH: B1 VH with V2I
VL: B1 VL
modifications: synthetic humanized antibody heavy chain variable region sequence; synthetic humanized antibody light chain variable region sequence
- hEphA10-SEAP-: absorbance at 450 nm, percentage with respect to hEphA4-SEAP-His as 100% (human EphA10): 5.2%
- hEphA4-SEAP-: absorbance at 450 nm, percentage with respect to hEphA4-SEAP-His as 100% (human EphA4): 100%
- hEphA7-SEAP-: absorbance at 450 nm, percentage with respect to hEphA4-SEAP-His as 100% (human EphA7): 5.8%
- hEphA8-SEAP-: absorbance at 450 nm, percentage with respect to hEphA4-SEAP-His as 100% (human EphA8): 6.0%

B10: 145 (antibody, V domains shown)
VH: B1 VH
VL: B1 VL with V48L, P80S
modifications: synthetic humanized antibody heavy chain variable region sequence; synthetic humanized antibody light chain variable region sequence
- hEphA10-SEAP-: absorbance at 450 nm, percentage with respect to hEphA4-SEAP-His as 100% (human EphA10): 6.5%
- hEphA4-SEAP-: absorbance at 450 nm, percentage with respect to hEphA4-SEAP-His as 100% (human EphA4): 100%
- hEphA7-SEAP-: absorbance at 450 nm, percentage with respect to hEphA4-SEAP-His as 100% (human EphA7): 6.3%
- hEphA8-SEAP-: absorbance at 450 nm, percentage with respect to hEphA4-SEAP-His as 100% (human EphA8): 6.6%

B11: 144 (antibody, V domains shown)
VH: B1 VH with K46E
VL: B1 VL with K45Q, V48L
modifications: synthetic humanized antibody heavy chain variable region sequence; synthetic humanized antibody light chain variable region sequence
- hEphA10-SEAP-: absorbance at 450 nm, percentage with respect to hEphA4-SEAP-His as 100% (human EphA10): 5.7%
- hEphA4-SEAP-: absorbance at 450 nm, percentage with respect to hEphA4-SEAP-His as 100% (human EphA4): 100%
- hEphA7-SEAP-: absorbance at 450 nm, percentage with respect to hEphA4-SEAP-His as 100% (human EphA7): 5.6%
- hEphA8-SEAP-: absorbance at 450 nm, percentage with respect to hEphA4-SEAP-His as 100% (human EphA8): 5.8%

Now from value to molecule:

- hEphA10-SEAP-: absorbance at 450 nm, percentage with respect to hEphA4-SEAP-His as 100% (human EphA10): 6.0%
- hEphA4-SEAP-: absorbance at 450 nm, percentage with respect to hEphA4-SEAP-His as 100% (human EphA4): 100%
- hEphA7-SEAP-: absorbance at 450 nm, percentage with respect to hEphA4-SEAP-His as 100% (human EphA7): 6.2%
- hEphA8-SEAP-: absorbance at 450 nm, percentage with respect to hEphA4-SEAP-His as 100% (human EphA8): 6.1%
B2: 153 (antibody, V domains shown)
VH: B1 VH with D62Q, D63G, K65T
VL: B1 VL with V48L, P80S
modifications: synthetic humanized antibody heavy chain variable region sequence; synthetic humanized antibody light chain variable region sequence

- hEphA10-SEAP-: absorbance at 450 nm, percentage with respect to hEphA4-SEAP-His as 100% (human EphA10): 5.9%
- hEphA4-SEAP-: absorbance at 450 nm, percentage with respect to hEphA4-SEAP-His as 100% (human EphA4): 100%
- hEphA7-SEAP-: absorbance at 450 nm, percentage with respect to hEphA4-SEAP-His as 100% (human EphA7): 6.3%
- hEphA8-SEAP-: absorbance at 450 nm, percentage with respect to hEphA4-SEAP-His as 100% (human EphA8): 5.5%
B3: 154 (antibody, V domains shown)
VH: B1 VH with K46E
VL: B1 VL with V48L, P80S
modifications: synthetic humanized antibody heavy chain variable region sequence; synthetic humanized antibody light chain variable region sequence

- hEphA10-SEAP-: absorbance at 450 nm, percentage with respect to hEphA4-SEAP-His as 100% (human EphA10): 6.1%
- hEphA4-SEAP-: absorbance at 450 nm, percentage with respect to hEphA4-SEAP-His as 100% (human EphA4): 100%
- hEphA7-SEAP-: absorbance at 450 nm, percentage with respect to hEphA4-SEAP-His as 100% (human EphA7): 6.0%
- hEphA8-SEAP-: absorbance at 450 nm, percentage with respect to hEphA4-SEAP-His as 100% (human EphA8): 6.0%
B5: 157 (antibody, V domains shown)
VH: B1 VH with K46E, D62Q, D63G, K65T
VL: B1 VL with K45Q, V48L
modifications: synthetic humanized antibody heavy chain variable region sequence; synthetic humanized antibody light chain variable region sequence

- hEphA10-SEAP-: absorbance at 450 nm, percentage with respect to hEphA4-SEAP-His as 100% (human EphA10): 5.4%
- hEphA4-SEAP-: absorbance at 450 nm, percentage with respect to hEphA4-SEAP-His as 100% (human EphA4): 100%
- hEphA7-SEAP-: absorbance at 450 nm, percentage with respect to hEphA4-SEAP-His as 100% (human EphA7): 5.6%
- hEphA8-SEAP-: absorbance at 450 nm, percentage with respect to hEphA4-SEAP-His as 100% (human EphA8): 5.5%
B6: 155 (antibody, V domains shown)
VH: B1 VH with V2I
VL: B1 VL with V48L, P80S
modifications: synthetic humanized antibody heavy chain variable region sequence; synthetic humanized antibody light chain variable region sequence

- hEphA10-SEAP-: absorbance at 450 nm, percentage with respect to hEphA4-SEAP-His as 100% (human EphA10): 6.4%
- hEphA4-SEAP-: absorbance at 450 nm, percentage with respect to hEphA4-SEAP-His as 100% (human EphA4): 100%
- hEphA7-SEAP-: absorbance at 450 nm, percentage with respect to hEphA4-SEAP-His as 100% (human EphA7): 6.3%
- hEphA8-SEAP-: absorbance at 450 nm, percentage with respect to hEphA4-SEAP-His as 100% (human EphA8): 6.4%
B9: 158 (antibody, V domains shown)
VH: B1 VH with D62Q, D63G, K65T
VL: B1 VL with K45Q, V48L
modifications: synthetic humanized antibody heavy chain variable region sequence; synthetic humanized antibody light chain variable region sequence
